Numbering of substitutions follows the chain as printed.
What was measured:
bmCENP-T patch 1 mutant = molecular target: T1, bmCENP-T patch 1 mutant (Bombyx mori, UniProt A0A8R2HRP3 894-1016, K895A;R896A;K907A;R908S;K911A); assay: EMSA; 100 mM NaCl; EMSA: 100 mM NaCl, 4 °C 30 min, 300 ng DNA, 8% glycerol, 5% native PAGE, GelRed stain; protein stock in 10 mM HEPES pH 7.5, 500 mM NaCl; binding buffer and pH not stated; settings: protein: recombinant; tags: GST tag cleaved with HRV 3C; blunt
T1 sequence: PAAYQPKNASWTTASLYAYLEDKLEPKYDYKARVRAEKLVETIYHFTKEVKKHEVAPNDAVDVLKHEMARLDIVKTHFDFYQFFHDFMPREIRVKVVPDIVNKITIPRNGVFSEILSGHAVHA

bmCENP-T patch 2 mutant = molecular target: T2, bmCENP-T patch 2 mutant (Bombyx mori, UniProt A0A8R2HRP3 894-1016, R928S;R963S); assay: EMSA; 100 mM NaCl; no effect of mutation; EMSA: 100 mM NaCl, 4 °C 30 min, 300 ng DNA, 8% glycerol, 5% native PAGE, GelRed stain; protein stock in 10 mM HEPES pH 7.5, 500 mM NaCl; binding buffer and pH not stated; settings: protein: recombinant; tags: GST tag cleaved with HRV 3C; blunt
T2 sequence: T1 sequence with A2K, A3R, A14K, S15R, A18K, R35S, R70S

bmCENP-T HFD WT = molecular target: T3, bmCENP-T HFD WT (Bombyx mori, UniProt A0A8R2HRP3 894-1016); assay: EMSA; 100 mM NaCl; maximum complex at 5x molar excess of protein; EMSA: 100 mM NaCl, 4 °C 30 min, 300 ng DNA, 8% glycerol, 5% native PAGE, GelRed stain; protein stock in 10 mM HEPES pH 7.5, 500 mM NaCl; binding buffer and pH not stated; settings: protein: recombinant; tags: GST tag cleaved with HRV 3C (vector-derived N-terminal residues may remain); blunt
T3 sequence: T1 sequence with A2K, A3R, A14K, S15R, A18K

B1: 12 bp DNA (AA357/AA358) (dsDNA)
DNA 1: TAGACAGCTCTA
DNA 2: TAGAGCTGTCTA
binding result (bmCENP-T patch 1 mutant): no binding
binding result (bmCENP-T patch 2 mutant): binds
binding result (bmCENP-T HFD WT): binds

Reference: article PMC12678787, “Insects evolved a monomeric histone-fold domain in the CENP-T protein family”
